Measurements reported in patent US20180346600A1 (AJOU UNIVERSITY INDUSTRY ACADEMIC COOPERATION FOUNDATION, published 2018).

Experiments:
[1] = molecular target: T1, A107w/oW-VT (displayed FcCH3A on yeast cell surface); assay: flow cytometry of diploid yeast: MFI of Flag-tagged secreted FcCH3B held on displayed FcCH3A (anti-Flag mouse mAb and PE anti-mouse antibody), normalised to EW-RVT = 100 %
T1 construct: also called A107w/oW-VT CH3A chain (yeast), K370E
T1 Fc: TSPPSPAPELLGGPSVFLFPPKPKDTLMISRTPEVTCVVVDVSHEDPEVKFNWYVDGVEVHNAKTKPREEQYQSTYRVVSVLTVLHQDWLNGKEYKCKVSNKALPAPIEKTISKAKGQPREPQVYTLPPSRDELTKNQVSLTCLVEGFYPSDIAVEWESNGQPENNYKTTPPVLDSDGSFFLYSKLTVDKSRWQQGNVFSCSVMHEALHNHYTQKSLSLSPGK
Source text: (§1) FACS was sequentially performed four times. […] Table 9 below summarizes the mutation pairs introduced into individual clones selected from the respective LibA2 and LibB2 libraries.

[2] = molecular target: T2, displayed FcCH3A, A241 (E357N/S364W/K370E), on yeast cell surface (human, UniProt P0DOX5 227-449 = IgG part); assay: as above
T2 construct: also called A241 CH3A chain (yeast)
T2 Fc: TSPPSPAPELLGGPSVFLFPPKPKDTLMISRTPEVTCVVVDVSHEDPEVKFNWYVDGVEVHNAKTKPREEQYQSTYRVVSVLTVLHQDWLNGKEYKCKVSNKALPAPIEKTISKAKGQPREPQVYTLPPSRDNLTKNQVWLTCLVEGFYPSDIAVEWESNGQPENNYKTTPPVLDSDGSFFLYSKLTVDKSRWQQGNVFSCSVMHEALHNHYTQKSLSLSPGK
Source text: as §1

[3] = molecular target: T3, displayed FcCH3A, A205 (E357D/S364W/K370E), on yeast cell surface (human, UniProt P0DOX5 227-449 = IgG part); assay: as above
T3 construct: also called A205 CH3A chain (yeast)
T3 Fc: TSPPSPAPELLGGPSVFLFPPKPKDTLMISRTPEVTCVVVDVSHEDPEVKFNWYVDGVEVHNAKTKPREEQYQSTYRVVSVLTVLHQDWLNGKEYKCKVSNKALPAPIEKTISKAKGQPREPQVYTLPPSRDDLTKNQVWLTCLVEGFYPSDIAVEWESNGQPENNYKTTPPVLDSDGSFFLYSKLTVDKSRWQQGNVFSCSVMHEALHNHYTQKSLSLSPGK
Source text: as §1

[4] = molecular target: T4, B168w/oW-VT (displayed FcCH3A on yeast cell surface); assay: as above
T4 construct: also called B168w/oW-VT CH3A chain (yeast), D399L
T4 Fc: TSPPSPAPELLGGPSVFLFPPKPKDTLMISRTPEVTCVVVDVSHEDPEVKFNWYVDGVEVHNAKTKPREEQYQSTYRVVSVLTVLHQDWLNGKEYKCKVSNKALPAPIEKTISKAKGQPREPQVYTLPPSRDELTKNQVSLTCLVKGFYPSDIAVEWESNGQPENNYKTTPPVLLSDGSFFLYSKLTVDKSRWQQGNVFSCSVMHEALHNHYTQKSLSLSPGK
Source text: as §1

[5] = molecular target: T5, displayed FcCH3A, B215 (K392R/K409R/D399L), on yeast cell surface (human, UniProt P0DOX5 227-449 = IgG part); assay: as above
T5 construct: also called B215 CH3A chain (yeast)
T5 Fc: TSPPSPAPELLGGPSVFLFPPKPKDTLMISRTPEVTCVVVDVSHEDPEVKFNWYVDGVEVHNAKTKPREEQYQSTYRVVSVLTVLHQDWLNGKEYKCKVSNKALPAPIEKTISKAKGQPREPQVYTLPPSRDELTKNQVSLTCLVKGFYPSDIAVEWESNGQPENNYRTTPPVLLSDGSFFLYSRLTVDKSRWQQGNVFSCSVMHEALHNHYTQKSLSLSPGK
Source text: as §1

[6] = molecular target: T6, displayed FcCH3A, B212 (K392I/D399L), on yeast cell surface (human, UniProt P0DOX5 227-449 = IgG part); assay: as above
T6 construct: also called B212 CH3A chain (yeast)
T6 Fc: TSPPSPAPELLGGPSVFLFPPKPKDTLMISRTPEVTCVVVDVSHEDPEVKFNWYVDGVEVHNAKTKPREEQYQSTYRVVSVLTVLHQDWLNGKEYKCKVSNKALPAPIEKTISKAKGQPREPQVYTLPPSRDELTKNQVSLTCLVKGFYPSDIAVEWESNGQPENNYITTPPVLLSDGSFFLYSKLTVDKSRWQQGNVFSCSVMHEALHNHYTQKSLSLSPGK
Source text: as §1

[7] = molecular target: T7, displayed FcCH3A, A210 (E357A/S364Y/K370E), on yeast cell surface (human, UniProt P0DOX5 227-449 = IgG part); assay: as above
T7 construct: also called A210 CH3A chain (yeast)
T7 Fc: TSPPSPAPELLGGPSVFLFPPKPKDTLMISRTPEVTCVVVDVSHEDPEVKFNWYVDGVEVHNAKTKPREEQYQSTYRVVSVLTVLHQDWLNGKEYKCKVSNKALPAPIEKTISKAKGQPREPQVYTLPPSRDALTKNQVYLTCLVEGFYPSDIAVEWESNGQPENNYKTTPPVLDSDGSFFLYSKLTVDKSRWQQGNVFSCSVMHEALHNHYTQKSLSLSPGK
Source text: as §1

[8] = molecular target: T8, displayed FcCH3A, A216 (E357G/S364W/K370E), on yeast cell surface (human, UniProt P0DOX5 227-449 = IgG part); assay: as above
T8 construct: also called A216 CH3A chain (yeast)
T8 Fc: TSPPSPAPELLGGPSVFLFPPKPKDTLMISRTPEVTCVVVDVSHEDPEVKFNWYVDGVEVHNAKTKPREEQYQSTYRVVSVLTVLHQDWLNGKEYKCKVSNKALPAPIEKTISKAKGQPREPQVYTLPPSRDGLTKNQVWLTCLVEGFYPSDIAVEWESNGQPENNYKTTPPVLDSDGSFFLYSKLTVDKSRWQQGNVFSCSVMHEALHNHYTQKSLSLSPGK
Source text: as §1

[9] = molecular target: T9, displayed FcCH3A, KiH (Genentech) (T366S/L368A/Y407V), on yeast cell surface (human, UniProt P0DOX5 227-449 = IgG part); assay: flow cytometry histogram (PE, FL2-H) of diploid yeast: Flag-tagged secreted FcCH3B held on displayed FcCH3A, anti-Flag mouse mAb and PE anti-mouse antibody
T9 construct: also called KiH CH3A chain (yeast)
T9 Fc: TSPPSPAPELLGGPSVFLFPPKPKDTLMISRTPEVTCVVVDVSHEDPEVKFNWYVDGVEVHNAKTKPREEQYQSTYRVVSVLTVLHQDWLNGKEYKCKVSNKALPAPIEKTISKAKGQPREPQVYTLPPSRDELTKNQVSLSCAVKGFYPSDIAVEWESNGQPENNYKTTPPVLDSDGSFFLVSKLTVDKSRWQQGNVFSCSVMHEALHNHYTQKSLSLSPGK
Procedure: Specifically, the diploid in which the expression of the heterodimeric heavy chain constant region was induced was reacted with an antibody recognizing flag-tag included in the secreted FcCH3B (anti-Flag mouse mAb, F3165) (Sigma-Aldrich) and an antibody conjugated with PE (phycoerythrin conjugated anti-mouse mAb, sc-3738) (Santa Cruz biotechnology), and a signal of PE was analyzed by flow cytometry.

B1: A107w/oW-VT (secreted FcCH3B from yeast) (other)
secreted Fc chain (hinge-CH2-CH3B): TSPPSPAPELLGGPSVFLFPPKPKDTLMISRTPEVTCVVVDVSHEDPEVKFNWYVDGVEVHNAKTKPREEQYQSTYRVVSVLTVLHQDWLNGKEYKCKVSNKALPAPIEKTISKAKGQPREPQVYTLPPSRDNLTKNQVSLTCLVKGFYPSDIAVEWESNGQPENNYKTTPPVLDSDGSFFLYSKLTVDKSRWQQGNVFSCSVMHEALHNHYTQKSLSLSPGK
notes: also called A107w/oW-VT CH3B chain (yeast), E357N
binding result [1]: binds

B2: secreted FcCH3B, A241 (E357N), from yeast (other)
chain: TSPPSPAPELLGGPSVFLFPPKPKDTLMISRTPEVTCVVVDVSHEDPEVKFNWYVDGVEVHNAKTKPREEQYQSTYRVVSVLTVLHQDWLNGKEYKCKVSNKALPAPIEKTISKAKGQPREPQVYTLPPSRDNLTKNQVSLTCLVKGFYPSDIAVEWESNGQPENNYKTTPPVLDSDGSFFLYSKLTVDKSRWQQGNVFSCSVMHEALHNHYTQKSLSLSPGK
notes: also called A241 CH3B chain (yeast); not shown: flag-tag
binding result [2]: binds

B3: secreted FcCH3B, A205 (E357N/K370R), from yeast (other)
chain: TSPPSPAPELLGGPSVFLFPPKPKDTLMISRTPEVTCVVVDVSHEDPEVKFNWYVDGVEVHNAKTKPREEQYQSTYRVVSVLTVLHQDWLNGKEYKCKVSNKALPAPIEKTISKAKGQPREPQVYTLPPSRDNLTKNQVSLTCLVRGFYPSDIAVEWESNGQPENNYKTTPPVLDSDGSFFLYSKLTVDKSRWQQGNVFSCSVMHEALHNHYTQKSLSLSPGK
notes: also called A205 CH3B chain (yeast); not shown: flag-tag
binding result [3]: binds

B4: B168w/oW-VT (secreted FcCH3B from yeast) (other)
secreted Fc chain (hinge-CH2-CH3B): TSPPSPAPELLGGPSVFLFPPKPKDTLMISRTPEVTCVVVDVSHEDPEVKFNWYVDGVEVHNAKTKPREEQYQSTYRVVSVLTVLHQDWLNGKEYKCKVSNKALPAPIEKTISKAKGQPREPQVYTLPPSRDELTKNQVSLTCLVKGFYPSDIAVEWESNGQPENNYGTTPPVLDSDGSFFLYSMLTVDKSRWQQGNVFSCSVMHEALHNHYTQKSLSLSPGK
notes: also called B168w/oW-VT CH3B chain (yeast), K392G/K409M
binding result [4]: binds

B5: secreted FcCH3B, B215 (D399W/K392G/K409M), from yeast (other)
chain: TSPPSPAPELLGGPSVFLFPPKPKDTLMISRTPEVTCVVVDVSHEDPEVKFNWYVDGVEVHNAKTKPREEQYQSTYRVVSVLTVLHQDWLNGKEYKCKVSNKALPAPIEKTISKAKGQPREPQVYTLPPSRDELTKNQVSLTCLVKGFYPSDIAVEWESNGQPENNYGTTPPVLWSDGSFFLYSMLTVDKSRWQQGNVFSCSVMHEALHNHYTQKSLSLSPGK
notes: also called B215 CH3B chain (yeast); not shown: flag-tag
binding result [5]: binds

B6: secreted FcCH3B, B212 (D399G/K392G/K409M), from yeast (other)
chain: TSPPSPAPELLGGPSVFLFPPKPKDTLMISRTPEVTCVVVDVSHEDPEVKFNWYVDGVEVHNAKTKPREEQYQSTYRVVSVLTVLHQDWLNGKEYKCKVSNKALPAPIEKTISKAKGQPREPQVYTLPPSRDELTKNQVSLTCLVKGFYPSDIAVEWESNGQPENNYGTTPPVLGSDGSFFLYSMLTVDKSRWQQGNVFSCSVMHEALHNHYTQKSLSLSPGK
notes: also called B212 CH3B chain (yeast); not shown: flag-tag
binding result [6]: binds

B7: secreted FcCH3B, A210 (E357N/K370H), from yeast (other)
chain: TSPPSPAPELLGGPSVFLFPPKPKDTLMISRTPEVTCVVVDVSHEDPEVKFNWYVDGVEVHNAKTKPREEQYQSTYRVVSVLTVLHQDWLNGKEYKCKVSNKALPAPIEKTISKAKGQPREPQVYTLPPSRDNLTKNQVSLTCLVHGFYPSDIAVEWESNGQPENNYKTTPPVLDSDGSFFLYSKLTVDKSRWQQGNVFSCSVMHEALHNHYTQKSLSLSPGK
notes: also called A210 CH3B chain (yeast); not shown: flag-tag
binding result [7]: binds

B8: secreted FcCH3B, A216 (E357N), from yeast (other)
chain: TSPPSPAPELLGGPSVFLFPPKPKDTLMISRTPEVTCVVVDVSHEDPEVKFNWYVDGVEVHNAKTKPREEQYQSTYRVVSVLTVLHQDWLNGKEYKCKVSNKALPAPIEKTISKAKGQPREPQVYTLPPSRDNLTKNQVSLTCLVKGFYPSDIAVEWESNGQPENNYKTTPPVLDSDGSFFLYSKLTVDKSRWQQGNVFSCSVMHEALHNHYTQKSLSLSPGK
notes: also called A216 CH3B chain (yeast); not shown: flag-tag
binding result [8]: binds

B9: secreted FcCH3B, KiH (Genentech) (T366W), from yeast (other)
chain: TSPPSPAPELLGGPSVFLFPPKPKDTLMISRTPEVTCVVVDVSHEDPEVKFNWYVDGVEVHNAKTKPREEQYQSTYRVVSVLTVLHQDWLNGKEYKCKVSNKALPAPIEKTISKAKGQPREPQVYTLPPSRDELTKNQVSLWCLVKGFYPSDIAVEWESNGQPENNYKTTPPVLDSDGSFFLYSKLTVDKSRWQQGNVFSCSVMHEALHNHYTQKSLSLSPGK
notes: also called KiH CH3B chain (yeast); not shown: flag-tag
binding result [9]: binds
